Experimental findings from patent publication US20130143238A1 (BAXTER HEALTHCARE S A, published 2013) are described below.

The target in assay [1] is T1, human cluster designation 34 (CD34) antigen on the surface of TF-1 cells (human, UniProt P28906 32-385).
T1 construct: whole, on cells; native on TF-1 cells; also called CD34 membrane-protein; CD34-receptor
T1 sequence (looked up): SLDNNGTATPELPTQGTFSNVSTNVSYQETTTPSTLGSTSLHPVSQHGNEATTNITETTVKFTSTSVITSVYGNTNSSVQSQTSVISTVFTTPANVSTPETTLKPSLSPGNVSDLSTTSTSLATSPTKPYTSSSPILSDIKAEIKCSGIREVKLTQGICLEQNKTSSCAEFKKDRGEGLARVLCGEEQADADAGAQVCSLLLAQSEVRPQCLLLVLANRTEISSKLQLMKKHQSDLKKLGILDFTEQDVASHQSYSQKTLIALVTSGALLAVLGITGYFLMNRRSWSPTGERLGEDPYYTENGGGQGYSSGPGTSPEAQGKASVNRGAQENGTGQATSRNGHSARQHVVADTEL
The assay can be described thus: cell capture assay, conditioned medium of HEK293T cells, TF-1 cells, luminescence. The protocol: (§1) 96-well microplates (Maxisorp, Nalge Nunc) were coated with polyclonal anti-mouse IgG antibody developed in goats (Jackson Immuno Research, Suffolk, UK) or in sheep (Baxter Oncology, Halle, Germany). After washing with PBS, either conditioned medium containing the anti-CD34 antibody was added and incubated overnight at 4° C. or purified antibody was diluted in DMEM medium (Invitrogen/Gibco, Lofer, Austria) supplemented with 10% FCS (PAA Laboratories, Pasching, Austria) and 1% penicillin/streptomycin (Invitrogen/Gibco) prior to incubation. Subsequently, plates were washed with PBS and TF-1 cells (ATCC CRL-2003) were added at a cell density of 1×10⁵ cells/mL. TF-1 cells were cultivated in RPMI medium (Invitrogen/Gibco). The bound anti-CD34 antibody captures the TF-1 cells by binding to the CD34 present on the surface of the cells. After washing steps to remove the unbound cells, the Cell Titer-Glo reagent from the CellTiter-Glo Luminescent Cell Viability Assay Kit (Promega, Mannheim, Germany) was added. This reagent gives a luminescence signal proportional to the number of viable cells based on an ATP-dependent luciferase reaction (FIG. 3).
The expression of mouse IgG was first verified by the Easy Titer Mouse IgG Assay (Pierce) according to the manufacturer's instructions. To test the functionality of the antibodies the supernatants were tested in the cell capture assay. […]

Assay [2] deals with T1, human cluster designation 34 (CD34) …. The assay can be described thus: cell capture assay, dilution series of purified antibody, TF-1 cells. The protocol: as §1
Furthermore, in a large scale expression experiment 23 triple flasks (Nunclon Surface, Nalge Nunc) and one cell factory (Nalge Nunc) were co-transfected and incubated for three weeks. […]

B1: recombinant anti-CD34 antibody transiently expressed in HEK293T cells (co-transfection of pCMV-9C5lc and pCMV-9C5hc) (antibody, V domains shown)
VH: EVQLQQSGPELVKPGASVKISCKASGYSFIGYFMNWVMQSHGRSLEWIGRINPYNGYTFYNQKFKGKATLTVDKSSSTAHMELRSLASEDSAVYYCARHFRYDGVFYYAMDYWGQGTSVTVSS
VL: QLVLTQSSSASFSLGASAKLTCTLSSQHSTFTIEWYQQQPLKPPKYVMDLKKDGSHSTGDGVPDRFSGSSSGADRYLSISNIQPEDEATYICGVGDTIKEQFVYVFGGGTKVTVLG
notes: Tested as conditioned medium and as purified antibody, captured on plates coated with anti-mouse IgG; also called anti-CD34 9C5 antibody; transiently expressed recombinant anti-CD34 antibody
As to B1, in assay [1], the binding result is reported as “binds”.

B2: hybridoma-derived anti-CD34 antibody secreted by the mouse hybridoma cell line 9C5/9069 (antibody, V domains shown)
VH: B1 VH
VL: B1 VL
notes: also called hybridoma supernatant
Turning to B2, the binding result in assay [2] is “binds”.
